# According to the supplement of paper PMC10899765:
# Tests used:
# Conditions in all cases: 20 nM; 72 h
# MCF10A [1] = assay: one-nucleolus phenotype percent effect (relative to siNT 0% and siNOL11 100%); higher = more cells with one nucleolus (ribosome biogenesis inhibition)
# Method: (§1)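 After 72 h, cells were fixed and stained with Hoechst and anti-fibrillarin, and nucleoli per nucleus were counted with CellProfiler. Values are plate-adjusted percent effect for the one-nucleolus and 5+ nucleoli phenotypes, normalised to siNT (0%) and to the positive controls siNOL11 or siKIF11 (100%), as the mean of biological triplicates. Percent viability is the nuclei count relative to siNT.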
# MCF10A [2] = assay: percent viability (nuclei count relative to siNT); higher = more viable cells
# Method: as §1
# MCF10A [3] = assay: 5+ nucleoli phenotype percent effect (relative to siNT 0% and siKIF11 100%); higher = more cells with five or more nucleoli
# Method: as §1
sequence,measurement,setting,value
AUCUGGAGGUAAGAAGCACUUU [hsa-miR-516b-5p],one-nucleolus phenotype percent effect,MCF10A [1],-1.83%
same,percent viability,MCF10A [2],61.6%
same,5+ nucleoli phenotype percent effect,MCF10A [3],48.7%
UUGGGGAAACGGCCGCUGAGUG [hsa-miR-2110],one-nucleolus phenotype percent effect,MCF10A [1],45.4%
same,percent viability,MCF10A [2],42.2%
same,5+ nucleoli phenotype percent effect,MCF10A [3],-27.7%
AGACUGACGGCUGGAGGCCCAU [hsa-miR-4513],one-nucleolus phenotype percent effect,MCF10A [1],-13.8%
same,percent viability,MCF10A [2],43.7%
same,5+ nucleoli phenotype percent effect,MCF10A [3],21.1%
GGGGAACUGUAGAUGAAAAGGC [hsa-miR-8059],one-nucleolus phenotype percent effect,MCF10A [1],-28.4%
same,percent viability,MCF10A [2],101%
same,5+ nucleoli phenotype percent effect,MCF10A [3],34.6%
CCCUGGGCCUCUGCUCCCCAG [hsa-miR-939-3p],one-nucleolus phenotype percent effect,MCF10A [1],17.1%
same,percent viability,MCF10A [2],31.6%
same,5+ nucleoli phenotype percent effect,MCF10A [3],-13%
UUUCUAUUUCUCAGUGGGGCUC [hsa-miR-4482-3p],one-nucleolus phenotype percent effect,MCF10A [1],31.6%
same,percent viability,MCF10A [2],21.2%
same,5+ nucleoli phenotype percent effect,MCF10A [3],0.737%
UAUACAAGGGCAAGCUCUCUGU [hsa-miR-381-3p],one-nucleolus phenotype percent effect,MCF10A [1],-13.7%
same,percent viability,MCF10A [2],90.7%
same,5+ nucleoli phenotype percent effect,MCF10A [3],3.97%
CUUAGAUUAGAGGAUAUUGUU [hsa-miR-8061],one-nucleolus phenotype percent effect,MCF10A [1],-12.7%
same,percent viability,MCF10A [2],73.7%
same,5+ nucleoli phenotype percent effect,MCF10A [3],58.8%
UGUUUCGGGGCUCAUGGCCUGUG [hsa-miR-5705],one-nucleolus phenotype percent effect,MCF10A [1],-18.8%
same,percent viability,MCF10A [2],136%
same,5+ nucleoli phenotype percent effect,MCF10A [3],33.2%
ACUGUCACUUCUCUGCCCAUAG [hsa-miR-6773-3p],one-nucleolus phenotype percent effect,MCF10A [1],13.5%
same,percent viability,MCF10A [2],47.1%
same,5+ nucleoli phenotype percent effect,MCF10A [3],-17.8%
UGUUGUACUUUUUUUUUUGUUC [hsa-miR-3613-5p],one-nucleolus phenotype percent effect,MCF10A [1],-10.4%
same,percent viability,MCF10A [2],114%
same,5+ nucleoli phenotype percent effect,MCF10A [3],4.98%
CAGCCACAACUACCCUGCCACU [hsa-miR-449b-3p],one-nucleolus phenotype percent effect,MCF10A [1],-5.19%
same,percent viability,MCF10A [2],71.9%
same,5+ nucleoli phenotype percent effect,MCF10A [3],1.67%
AUUGACACCUCUGUGAGUGGA [hsa-miR-514b-3p],one-nucleolus phenotype percent effect,MCF10A [1],16.1%
same,percent viability,MCF10A [2],32.6%
same,5+ nucleoli phenotype percent effect,MCF10A [3],-12.5%
ACUGCUGAGCUAGCACUUCCCG [hsa-miR-93-3p],one-nucleolus phenotype percent effect,MCF10A [1],0.758%
same,percent viability,MCF10A [2],33.2%
same,5+ nucleoli phenotype percent effect,MCF10A [3],-7.82%
UAGGUAGAGUGUGAGGAGGAGGUC [hsa-miR-6831-5p],one-nucleolus phenotype percent effect,MCF10A [1],-21%
same,percent viability,MCF10A [2],53.8%
same,5+ nucleoli phenotype percent effect,MCF10A [3],27.5%
UCAAUAGGAAAGAGGUGGGACCU [hsa-miR-6826-5p],one-nucleolus phenotype percent effect,MCF10A [1],26.5%
same,percent viability,MCF10A [2],33.3%
same,5+ nucleoli phenotype percent effect,MCF10A [3],-20.8%
UUCAACAAGGGUGUAGGAUGG [hsa-miR-7159-5p],one-nucleolus phenotype percent effect,MCF10A [1],-19.4%
same,percent viability,MCF10A [2],105%
same,5+ nucleoli phenotype percent effect,MCF10A [3],14.1%
UAGGGGAAAAGUCCUGAUCCGG [hsa-miR-6783-5p],one-nucleolus phenotype percent effect,MCF10A [1],-20.2%
same,percent viability,MCF10A [2],78.4%
same,5+ nucleoli phenotype percent effect,MCF10A [3],18.2%
ACUCUUUCCCUGUUGCACUAC [hsa-miR-130b-5p],one-nucleolus phenotype percent effect,MCF10A [1],-13.5%
same,percent viability,MCF10A [2],54.3%
same,5+ nucleoli phenotype percent effect,MCF10A [3],16.1%
UAGGGAUGGGAGGCCAGGAUGA [hsa-miR-6757-5p],one-nucleolus phenotype percent effect,MCF10A [1],3.26%
same,percent viability,MCF10A [2],41.1%
same,5+ nucleoli phenotype percent effect,MCF10A [3],2.44%
UGGUCUGUCUCUGCCCUGGCAC [hsa-miR-6753-3p],one-nucleolus phenotype percent effect,MCF10A [1],39.6%
same,percent viability,MCF10A [2],21.6%
same,5+ nucleoli phenotype percent effect,MCF10A [3],-4.31%
UGGAUAUGAUGACUGAAA [hsa-miR-4791],one-nucleolus phenotype percent effect,MCF10A [1],-7.67%
same,percent viability,MCF10A [2],71.5%
same,5+ nucleoli phenotype percent effect,MCF10A [3],4.66%
UUCAGAUCCCAGCGGUGCCUCU [hsa-miR-5100],one-nucleolus phenotype percent effect,MCF10A [1],14.1%
same,percent viability,MCF10A [2],39.2%
same,5+ nucleoli phenotype percent effect,MCF10A [3],-27.6%
GGGGAAAGCGAGUAGGGACAUUU [hsa-miR-3153],one-nucleolus phenotype percent effect,MCF10A [1],-1%
same,percent viability,MCF10A [2],55.6%
same,5+ nucleoli phenotype percent effect,MCF10A [3],13.5%
CAGCAGGAGGUGAGGGGAG [hsa-miR-6165],one-nucleolus phenotype percent effect,MCF10A [1],-18.4%
same,percent viability,MCF10A [2],101%
same,5+ nucleoli phenotype percent effect,MCF10A [3],36.7%
CACCUUGCGCUACUCAGGUCUG [hsa-miR-3200-3p],one-nucleolus phenotype percent effect,MCF10A [1],-8.76%
same,percent viability,MCF10A [2],24.5%
same,5+ nucleoli phenotype percent effect,MCF10A [3],-0.139%
UCUGGCCAGCUACGUCCCCA [hsa-miR-3190-5p],one-nucleolus phenotype percent effect,MCF10A [1],-10.2%
same,percent viability,MCF10A [2],48.9%
same,5+ nucleoli phenotype percent effect,MCF10A [3],19.8%
UGCCUGGGUCUCUGGCCUGCGCGU [hsa-miR-661],one-nucleolus phenotype percent effect,MCF10A [1],23.1%
same,percent viability,MCF10A [2],23%
same,5+ nucleoli phenotype percent effect,MCF10A [3],-18.5%
AGAUAUUUUGAGUGUUUGGAAUUG [hsa-miR-3145-3p],one-nucleolus phenotype percent effect,MCF10A [1],-11.7%
same,percent viability,MCF10A [2],48.7%
same,5+ nucleoli phenotype percent effect,MCF10A [3],-8.4%
UUCUCCAAAAGAAAGCACUUUCUG [hsa-miR-515-5p],one-nucleolus phenotype percent effect,MCF10A [1],-9.79%
same,percent viability,MCF10A [2],91.4%
same,5+ nucleoli phenotype percent effect,MCF10A [3],3.02%
CAGAUCAUGGGACUGUCUCAG [hsa-miR-5694],one-nucleolus phenotype percent effect,MCF10A [1],-16.1%
same,percent viability,MCF10A [2],66.3%
same,5+ nucleoli phenotype percent effect,MCF10A [3],22.8%
UUCUGGAUAACAUGCUGAAGCU [hsa-miR-5706],one-nucleolus phenotype percent effect,MCF10A [1],-32.6%
same,percent viability,MCF10A [2],176%
same,5+ nucleoli phenotype percent effect,MCF10A [3],51.3%
CUGUACAGCCUCCUAGCUUUCC [hsa-let-7a-2-3p],one-nucleolus phenotype percent effect,MCF10A [1],2.44%
same,percent viability,MCF10A [2],43.3%
same,5+ nucleoli phenotype percent effect,MCF10A [3],-34.3%
UAUUCAGAAAGGUGCCAGUCA [hsa-miR-892c-5p],one-nucleolus phenotype percent effect,MCF10A [1],-3.71%
same,percent viability,MCF10A [2],71.8%
same,5+ nucleoli phenotype percent effect,MCF10A [3],9.47%
CUCGGCCGCGGCGCGUAGCCCCCGCC [hsa-miR-4665-3p],one-nucleolus phenotype percent effect,MCF10A [1],-15.1%
same,percent viability,MCF10A [2],75.2%
same,5+ nucleoli phenotype percent effect,MCF10A [3],22%
UCAGCAUUCAUUGGCACCAGAGA [hsa-miR-7157-5p],one-nucleolus phenotype percent effect,MCF10A [1],13.5%
same,percent viability,MCF10A [2],30.6%
same,5+ nucleoli phenotype percent effect,MCF10A [3],-18.8%
GGUAUCCGUUUGGGGAUGGU [hsa-miR-3713],one-nucleolus phenotype percent effect,MCF10A [1],11.4%
same,percent viability,MCF10A [2],23.5%
same,5+ nucleoli phenotype percent effect,MCF10A [3],-27.6%
CUGUAAUAUAAAUUUAAUUUAUU [hsa-miR-2054],one-nucleolus phenotype percent effect,MCF10A [1],-17.6%
same,percent viability,MCF10A [2],168%
same,5+ nucleoli phenotype percent effect,MCF10A [3],28%
UGAUGGAGCUGGGAAUACUCUG [hsa-miR-8082],one-nucleolus phenotype percent effect,MCF10A [1],21.8%
same,percent viability,MCF10A [2],22.3%
same,5+ nucleoli phenotype percent effect,MCF10A [3],-14.2%
ACCAGCGCGUUUUCAGUUUCAU [hsa-miR-4738-5p],one-nucleolus phenotype percent effect,MCF10A [1],7.61%
same,percent viability,MCF10A [2],51.5%
same,5+ nucleoli phenotype percent effect,MCF10A [3],13.4%
AACACACCUGGUUAACCUCUUU [hsa-miR-329],one-nucleolus phenotype percent effect,MCF10A [1],-0.532%
same,percent viability,MCF10A [2],46.9%
same,5+ nucleoli phenotype percent effect,MCF10A [3],4.45%
UUCUGGAAUUCUGUGUGAGGGA [hsa-miR-1299],one-nucleolus phenotype percent effect,MCF10A [1],19.2%
same,percent viability,MCF10A [2],58.7%
same,5+ nucleoli phenotype percent effect,MCF10A [3],-3.13%
AGUAUUCUGUACCAGGGAAGGU [hsa-miR-630],one-nucleolus phenotype percent effect,MCF10A [1],-15.1%
same,percent viability,MCF10A [2],68.7%
same,5+ nucleoli phenotype percent effect,MCF10A [3],49.7%
GAUGAUGCUGCUGAUGCUG [hsa-miR-1322],one-nucleolus phenotype percent effect,MCF10A [1],24.5%
same,percent viability,MCF10A [2],41.1%
same,5+ nucleoli phenotype percent effect,MCF10A [3],-20.7%
UAGGUAGUUUCAUGUUGUUGGG [hsa-miR-196a-5p],one-nucleolus phenotype percent effect,MCF10A [1],-16.9%
same,percent viability,MCF10A [2],33.5%
same,5+ nucleoli phenotype percent effect,MCF10A [3],23.8%
